{"source": "paper PMC3554691", "about": "“Systematic Functional Comparative Analysis of Four Single-Stranded DNA-Binding Proteins and Their Affection on Viral RNA Metabolism” (PLoS ONE, 2013)", "key": {"[1]": {"target": "SSB protein from Sulfolobus Solfataricus P2 (SSOB) (Sulfolobus Solfataricus P2) (UniProt Q97W73)", "experiment": "native gel or EMSA; 5 µg of ssob on non-denaturing gradient polyacrylamide gel, running buffer and gel at pH 7.4, poles reversed, Coomassie stained; self-association"}, "[2]": {"target": "T1, SSB protein from Thermococcus kodakarensis KOD1 (KOD) (Thermococcus kodakarensis KOD1)", "T1 chain": "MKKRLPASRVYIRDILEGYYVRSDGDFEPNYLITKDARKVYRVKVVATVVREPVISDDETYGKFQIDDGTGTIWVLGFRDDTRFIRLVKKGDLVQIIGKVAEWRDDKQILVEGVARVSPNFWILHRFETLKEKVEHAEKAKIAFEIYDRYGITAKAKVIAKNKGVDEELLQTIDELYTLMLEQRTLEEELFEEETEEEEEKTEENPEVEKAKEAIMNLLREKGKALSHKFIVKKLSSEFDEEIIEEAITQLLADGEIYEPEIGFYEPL", "experiment": "native gel or EMSA; 5 µg of SSB protein on 3.5–5–12% non-denaturing gradient polyacrylamide gel with NativeMarker, Coomassie stained; self-association", "settings": "both partners purified"}, "[3]": {"target": "the molecule itself", "experiment": "native gel or EMSA; 5 µg of SSB protein on 3.5–5–12% non-denaturing gradient polyacrylamide gel with NativeMarker, Coomassie stained; self-association"}}}
{"molecule": "SSB protein from Sulfolobus Solfataricus P2 (SSOB) (from UniProt Q97W73 1-148) (natural protein)", "values": [{"measurement": "stoichiometry N", "setting": "[1]", "value": 4}]}
{"molecule": "SSB protein from Thermococcus kodakarensis KOD1 (KOD) (natural protein, N-terminal His tag left out. The locus TK1959 (RPA41, the 41 kDa replication factor A subunit) is inferred from the printed 356 residues and 41.6 kDa; it is not printed in the paper. / N-terminal His) MKKRLPASRVYIRDILEGYYVRSDGDFEPNYLITKDARKVYRVKVVATVVREPVISDDETYGKFQIDDGTGTIWVLGFRDDTRFIRLVKKGDLVQIIGKVAEWRDDKQILVEGVARVSPNFWILHRFETLKEKVEHAEKAKIAFEIYDRYGITAKAKVIAKNKGVDEELLQTIDELYTLMLEQRTLEEELFEEETEEEEEKTEENPEVEKAKEAIMNLLREKGKALSHKFIVKKLSSEFDEEIIEEAITQLLADGEIYEPEIGFYEPL", "values": [{"measurement": "stoichiometry N", "setting": "[2]", "value": 2}]}
{"molecule": "SSB protein from Thermus thermophilus HB8 (TTH) (natural protein, UniProt Q5SLP9 1-263, looked up, printed length 263 residues, monomer 29.8 kDa; also called TTH SSB protein; source: E. coli BL21 (DE3), purified (70°C heat treatment, Ni2+ Sepharose, dialysis); not shown: His6, N-terminal, kept) MARGLNRVFLIGALATRPDMRYTPAGLAILDLTLAGQDLLLSDNGGEREVSWYHRVRLLGRQAEMWGDLLDQGQLVFVEGRLEYRQWEREGERRSELQIRADFLDPLDDRGKERAEDSRGQPRLRAALNQVFLMGNLTRDPELRYTPQGTAVARLGLAVNERRQGAEERTHFVEVQAWRDLAEWAAELRKGDGLFVIGRLVNDSWTSSSGERRFQTRVEALRLERPTRGPAQAGGSRSREVQTGGVDIDEGLEDFPPEEELPF", "values": [{"measurement": "stoichiometry N", "setting": "[3]", "value": 2}]}
